Target: HLA-A2 on HLA-A2 positive peripheral blood mononuclear cells (human)
Test: cell-based or functional assay

CD69 cell surface expression on Tregs transduced with TX135 (PGK promoter), 24 h co-incubation, flow cytometry: 3.7 fold | CD69 cell surface expression on Tregs transduced with pTX137 (EF1a promoter), 24 h co-incubation, flow cytometry: < 2 fold | CD69 cell surface expression on Tregs transduced with pTX138 (EF1a promoter + WpreMut6), 24 h co-incubation, flow cytometry: < 2 fold
B1: HLA-A2 CAR (anti-HLA-A2 chimeric antigen receptor: CD8 leader, scFv directed against HLA-A2, CD8 alpha linker and transmembrane domain, CD28 activation domain, … (receptor)
chain: SQVQLQQSGPELVKPGASVKMSCKASGYTFTSYHIQWVKQRPGQGLEWIGWIYPGDGSTQYNEKFKGKTTLTADKSSSTAYMLLSSLTSEDSAIYFCAREGTYYAMDYWGQGTSVTVSSGGGGSGGGGSGGGGSDVLMTQTPLSLPVSLGDQVSISCRSSQSIVHSNGNTYLEWYLQKPGQSPKLLIYKVSNRFSGVPDRFSGSGSGTDFTLKISRVEAEDLGVYYCFQGSHVPRTFGGGTKLEIKRTTTPAPRPPTPAPTIASQPLSLRPEACRPAAGGAVHTRGLDFACDIYIWAPLAGTCGVLLLSLVITLYCRSKRSRLLHSDYMNMTPRRPGPTRKHYQPYAPPRDFAAYRSRVKFSRSADAPAYQQGQNQLYNELNLGRREEYDVLDKRRGRDPEMGGKPRRKNPQEGLYNELQKDKMAEAYSEIGMKGERRRGKGHDGLYQGLSTATKDTYDALHMQALPPR

From patent WO2021028359A1 (dated 2021)
